According to patent publication US20070093443:

How the values were obtained:
[1] = molecular target: Complement component C8 (human)
[2] = molecular target: Complement component C9 (human)
[3] = molecular target: T1, cynomolgus monkey complement C2 (in plasma of treated monkeys), G8F3W0
T1 chain: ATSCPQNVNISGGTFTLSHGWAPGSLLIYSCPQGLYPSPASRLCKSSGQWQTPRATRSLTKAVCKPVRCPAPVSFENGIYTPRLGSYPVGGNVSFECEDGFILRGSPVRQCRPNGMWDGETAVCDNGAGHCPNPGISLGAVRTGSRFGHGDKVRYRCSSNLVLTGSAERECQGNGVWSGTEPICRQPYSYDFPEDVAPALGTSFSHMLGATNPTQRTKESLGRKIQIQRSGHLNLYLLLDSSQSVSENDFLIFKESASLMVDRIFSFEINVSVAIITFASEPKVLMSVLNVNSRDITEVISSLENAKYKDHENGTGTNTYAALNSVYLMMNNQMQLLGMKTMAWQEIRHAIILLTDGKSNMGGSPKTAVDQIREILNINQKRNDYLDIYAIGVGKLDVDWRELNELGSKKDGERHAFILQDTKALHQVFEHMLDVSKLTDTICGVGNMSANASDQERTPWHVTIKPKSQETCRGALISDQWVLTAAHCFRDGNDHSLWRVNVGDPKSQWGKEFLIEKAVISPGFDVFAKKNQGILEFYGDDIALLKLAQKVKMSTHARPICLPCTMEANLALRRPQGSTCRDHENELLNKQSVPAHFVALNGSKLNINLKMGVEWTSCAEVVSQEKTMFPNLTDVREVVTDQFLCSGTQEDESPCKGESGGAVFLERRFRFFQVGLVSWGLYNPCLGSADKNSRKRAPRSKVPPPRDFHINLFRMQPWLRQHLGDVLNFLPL

[4] = molecular target: Complement C1q (human)
[5] = molecular target: Complement component C7 (human)
[6] = molecular target: T2, Complement C2 (human)
T2 chain: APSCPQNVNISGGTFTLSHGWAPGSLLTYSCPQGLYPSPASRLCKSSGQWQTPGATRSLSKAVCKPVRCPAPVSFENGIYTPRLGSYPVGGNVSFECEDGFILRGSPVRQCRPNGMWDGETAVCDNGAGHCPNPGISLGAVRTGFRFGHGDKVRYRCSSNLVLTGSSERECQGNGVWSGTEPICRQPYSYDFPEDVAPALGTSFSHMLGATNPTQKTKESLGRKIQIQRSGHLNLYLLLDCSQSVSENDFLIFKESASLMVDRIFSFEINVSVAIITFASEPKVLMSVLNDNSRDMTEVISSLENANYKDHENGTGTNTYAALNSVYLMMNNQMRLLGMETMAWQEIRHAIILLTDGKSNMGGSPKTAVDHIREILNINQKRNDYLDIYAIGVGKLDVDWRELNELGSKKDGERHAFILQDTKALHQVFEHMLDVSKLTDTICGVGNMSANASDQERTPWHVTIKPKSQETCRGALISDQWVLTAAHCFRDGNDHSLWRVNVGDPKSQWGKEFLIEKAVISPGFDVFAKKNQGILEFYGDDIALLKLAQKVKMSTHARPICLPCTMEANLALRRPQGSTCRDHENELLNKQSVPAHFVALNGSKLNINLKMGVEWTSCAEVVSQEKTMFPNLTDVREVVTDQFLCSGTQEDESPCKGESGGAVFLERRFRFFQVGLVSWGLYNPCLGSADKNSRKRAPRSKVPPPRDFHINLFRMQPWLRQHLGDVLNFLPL

[7] = molecular target: Complement component C6 (human)
[8] = molecular target: Complement C3 (human)

Complement component C9 (human), sequence (chain, as listed by the source): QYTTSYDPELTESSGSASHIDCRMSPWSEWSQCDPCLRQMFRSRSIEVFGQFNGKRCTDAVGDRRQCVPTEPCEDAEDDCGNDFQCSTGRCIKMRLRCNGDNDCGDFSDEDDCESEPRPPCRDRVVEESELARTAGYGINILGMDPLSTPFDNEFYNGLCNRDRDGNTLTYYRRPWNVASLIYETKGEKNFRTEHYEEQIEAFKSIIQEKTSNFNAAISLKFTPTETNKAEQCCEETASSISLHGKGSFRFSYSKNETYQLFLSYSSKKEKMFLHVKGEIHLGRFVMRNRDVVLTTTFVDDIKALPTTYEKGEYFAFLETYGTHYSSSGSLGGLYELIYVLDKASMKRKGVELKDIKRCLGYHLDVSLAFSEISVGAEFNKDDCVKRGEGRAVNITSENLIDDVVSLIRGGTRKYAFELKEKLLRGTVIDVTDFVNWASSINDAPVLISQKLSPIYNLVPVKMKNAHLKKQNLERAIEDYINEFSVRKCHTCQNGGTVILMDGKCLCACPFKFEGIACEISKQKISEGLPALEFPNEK
Complement component C7 (human), sequence (chain, as listed by the source): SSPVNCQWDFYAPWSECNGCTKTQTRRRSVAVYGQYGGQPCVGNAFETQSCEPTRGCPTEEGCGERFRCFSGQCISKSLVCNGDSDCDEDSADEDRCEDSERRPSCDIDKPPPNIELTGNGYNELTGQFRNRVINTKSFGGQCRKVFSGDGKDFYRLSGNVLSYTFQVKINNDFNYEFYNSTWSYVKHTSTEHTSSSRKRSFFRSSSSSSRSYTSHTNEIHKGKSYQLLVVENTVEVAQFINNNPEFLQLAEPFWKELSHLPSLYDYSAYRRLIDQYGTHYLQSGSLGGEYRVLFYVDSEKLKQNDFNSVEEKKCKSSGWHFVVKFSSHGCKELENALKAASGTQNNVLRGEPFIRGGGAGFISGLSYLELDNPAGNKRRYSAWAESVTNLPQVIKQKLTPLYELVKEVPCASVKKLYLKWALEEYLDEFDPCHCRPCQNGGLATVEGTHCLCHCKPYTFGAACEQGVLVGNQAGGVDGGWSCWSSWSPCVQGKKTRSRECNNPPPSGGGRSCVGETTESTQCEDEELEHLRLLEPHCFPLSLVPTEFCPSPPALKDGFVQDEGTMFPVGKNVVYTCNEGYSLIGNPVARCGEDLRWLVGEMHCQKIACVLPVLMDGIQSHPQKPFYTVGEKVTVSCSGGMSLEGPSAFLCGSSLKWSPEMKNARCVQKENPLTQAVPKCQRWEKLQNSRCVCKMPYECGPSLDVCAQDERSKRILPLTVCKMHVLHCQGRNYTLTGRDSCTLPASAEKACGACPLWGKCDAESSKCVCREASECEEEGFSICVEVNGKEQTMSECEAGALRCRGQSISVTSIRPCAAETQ
Complement component C6 (human), sequence (chain, as listed by the source): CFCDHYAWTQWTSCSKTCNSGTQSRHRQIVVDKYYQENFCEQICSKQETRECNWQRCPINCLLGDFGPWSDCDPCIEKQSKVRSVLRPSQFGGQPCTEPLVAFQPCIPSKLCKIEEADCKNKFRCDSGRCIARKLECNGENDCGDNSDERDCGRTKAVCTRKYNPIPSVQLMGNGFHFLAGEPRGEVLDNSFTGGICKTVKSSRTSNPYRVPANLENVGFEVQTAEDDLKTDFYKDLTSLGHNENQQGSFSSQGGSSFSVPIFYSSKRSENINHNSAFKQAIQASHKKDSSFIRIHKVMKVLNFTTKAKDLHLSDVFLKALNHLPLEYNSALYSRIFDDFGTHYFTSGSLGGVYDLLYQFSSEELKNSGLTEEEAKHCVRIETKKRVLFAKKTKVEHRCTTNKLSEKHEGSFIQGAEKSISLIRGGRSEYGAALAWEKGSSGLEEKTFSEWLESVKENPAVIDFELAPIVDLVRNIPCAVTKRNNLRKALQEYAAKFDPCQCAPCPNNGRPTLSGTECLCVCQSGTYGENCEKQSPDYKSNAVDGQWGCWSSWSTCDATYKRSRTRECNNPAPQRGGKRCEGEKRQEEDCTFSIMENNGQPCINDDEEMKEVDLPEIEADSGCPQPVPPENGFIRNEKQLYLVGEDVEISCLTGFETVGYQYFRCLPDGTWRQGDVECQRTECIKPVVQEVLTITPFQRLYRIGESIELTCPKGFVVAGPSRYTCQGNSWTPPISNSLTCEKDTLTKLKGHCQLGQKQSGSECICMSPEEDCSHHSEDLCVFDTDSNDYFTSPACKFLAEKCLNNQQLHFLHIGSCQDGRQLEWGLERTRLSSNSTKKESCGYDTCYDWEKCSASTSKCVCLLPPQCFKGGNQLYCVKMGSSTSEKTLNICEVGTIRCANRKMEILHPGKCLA
Complement component C8 (human), sequence (chain, as listed by the source, chain 1 of 3): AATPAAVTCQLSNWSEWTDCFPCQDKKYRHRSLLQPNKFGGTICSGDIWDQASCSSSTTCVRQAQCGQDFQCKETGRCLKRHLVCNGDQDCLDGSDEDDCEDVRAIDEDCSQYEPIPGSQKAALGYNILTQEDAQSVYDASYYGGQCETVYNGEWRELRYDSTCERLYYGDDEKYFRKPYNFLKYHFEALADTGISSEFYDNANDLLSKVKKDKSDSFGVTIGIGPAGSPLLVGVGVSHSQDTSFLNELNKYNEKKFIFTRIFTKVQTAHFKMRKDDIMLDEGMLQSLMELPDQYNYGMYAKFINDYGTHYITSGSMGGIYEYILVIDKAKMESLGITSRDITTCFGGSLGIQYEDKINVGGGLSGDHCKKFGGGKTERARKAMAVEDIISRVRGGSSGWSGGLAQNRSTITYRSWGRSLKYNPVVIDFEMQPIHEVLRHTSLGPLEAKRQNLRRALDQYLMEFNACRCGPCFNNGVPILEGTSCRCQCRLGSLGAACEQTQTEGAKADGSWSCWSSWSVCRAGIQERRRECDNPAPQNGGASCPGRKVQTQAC
Complement component C8 (human), sequence (chain, as listed by the source, chain 2 of 3): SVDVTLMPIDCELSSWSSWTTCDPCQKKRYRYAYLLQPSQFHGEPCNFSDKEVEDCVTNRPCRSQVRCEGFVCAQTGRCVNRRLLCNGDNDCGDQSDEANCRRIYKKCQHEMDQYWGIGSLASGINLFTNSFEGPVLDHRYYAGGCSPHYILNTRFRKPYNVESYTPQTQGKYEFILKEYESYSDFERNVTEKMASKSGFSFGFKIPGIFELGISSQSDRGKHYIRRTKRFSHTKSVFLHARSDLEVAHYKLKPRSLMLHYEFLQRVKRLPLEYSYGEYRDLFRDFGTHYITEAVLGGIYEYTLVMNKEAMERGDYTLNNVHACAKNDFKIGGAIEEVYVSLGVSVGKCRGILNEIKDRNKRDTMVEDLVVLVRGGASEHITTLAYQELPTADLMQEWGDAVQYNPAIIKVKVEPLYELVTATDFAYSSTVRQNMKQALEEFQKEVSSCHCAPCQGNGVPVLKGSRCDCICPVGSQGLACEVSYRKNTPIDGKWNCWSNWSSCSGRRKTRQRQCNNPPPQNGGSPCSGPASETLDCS
Complement component C8 (human), sequence (chain, as listed by the source, chain 3 of 3): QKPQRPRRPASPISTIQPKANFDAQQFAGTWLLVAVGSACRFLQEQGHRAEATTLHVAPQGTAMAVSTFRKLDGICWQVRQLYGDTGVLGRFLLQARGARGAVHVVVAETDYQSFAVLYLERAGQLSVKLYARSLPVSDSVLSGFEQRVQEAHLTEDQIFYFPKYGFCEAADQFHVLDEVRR

Row | Protein | hemolysis (OD415) by protease-preincubated purified complement protein added back to the corresponding depleted sera [1] | hemolysis (OD415) by protease-preincubated purified complement protein added back to the corresponding depleted sera [2] | C2 Western blot of plasma from monkeys dosed IV with 1 or 3 mg/kg protease [3] | hemolysis (OD415) by protease-preincubated purified complement protein added back to the corresponding depleted sera [4] | hemolysis (OD415) by protease-preincubated purified complement protein added back to the corresponding depleted sera [5] | cleavage in 90% human plasma by Western blot [6] | cleavage of purified C2 by 100 nM protease, SDS-PAGE and Coomassie [6] | fraction C5b-9 generated, Total Complement System Screen (classical and MBL pathways), 1 uM protease in human plasma [6] | hemolysis (OD415) by protease-preincubated purified complement protein added back to the corresponding depleted sera [6] | hemolysis (OD415) by protease-preincubated purified complement protein added back to the corresponding depleted sera [7] | cleavage in 90% human plasma by Western blot [8] | hemolysis (OD415) by protease-preincubated purified complement protein added back to the corresponding depleted sera [8] | other results
1 | modified MT-SP1 CB252 (Y146E/K224N) protease domain (protein) VVGGTDADEGEWPWQVSLHALGQGHICGASLISPNWLVSAAHCYIDDRGFRYSDPTQWTAFLGLHDQSQRSAPGVQERRLKRIISHPFFNDFTFDYDIALLELEKPAEYSSMVRPICLPDASHVFPAGKAIWVTGWGHTQEGGTGALILQKGEIRVINQTTCENLLPQQITPRMMCVGFLSGGVDSCQGDSGGPLSSVEADGRIFQAGVVSWGDGCAQRNNPGVYTRLPLFRDWIKENTGV | showed no decreased hemolysis as compared to normal sera or the no protease control | showed no decreased hemolysis as compared to normal sera or the no protease control | increased cleavage of C2 in plasma from CB252 and CB377 treated monkeys after treatment with 3 mg/kg protease but not after treatment with 1 mg/kg protease ... a greater cleavage of C2 occurred in plasma collected form CB252 treated monkeys as compared to CB377 treated monkeys at all time points tes | showed no decreased hemolysis as compared to normal sera or the no protease control | showed no decreased hemolysis as compared to normal sera or the no protease control | cleaved C2 in human plasma in a dose-dependent manner | C2 was almost completely degraded to yield cleavage products of about 70 kD and 23 kD corresponding to C2a and C2b, respectively | the fraction C5b-9 generated upon complement activation induced by the classical and MBL pathways was almost completely inhibited | resulted in an inhibition of hemolysis as assessed by a reduced OD415 absorbance to levels comparable to the depleted sera control | showed no decreased hemolysis as compared to normal sera or the no protease control | none of the tested proteases cleaved C3 in human plasma as compared to the no protease control even at the highest concentration of protease (2000 nM) | showed no decreased hemolysis as compared to normal sera or the no protease control | C2 Western blot of plasma from monkeys dosed with 1 mg/kg CB252 IV [3]: Plasma from monkeys treated with 1 mg/kg CB252 had no discernable C2 cleavage; average extent of degradation of C2 (densitometry of C2 Western blots), 5 minutes after 3 mg/kg CB252 IV [3]: 60% degraded at 5 minutes; average extent of degradation of C2 (densitometry of C2 Western blots), 30 minutes after 3 mg/kg CB252 IV [3]: 50% degraded at 30 minutes; average extent of degradation of C2 (densitometry of C2 Western blots), 60 minutes after 3 mg/kg CB252 IV [3]: 40% degraded at 60 minutes; percent C2 cleavage (Western blot densitometry), plasma of animal 2, 5 minutes after 3 mg/kg CB252 IV [3]: 62%; percent C2 cleavage (Western blot densitometry), plasma of animal 2, 30 minutes after 3 mg/kg CB252 IV [3]: 55%; percent C2 cleavage (Western blot densitometry), plasma of animal 2, 60 minutes after 3 mg/kg CB252 IV [3]: 50%; percent C2 cleavage (Western blot densitometry), plasma of animal 4, 5 minutes after 3 mg/kg CB252 IV [3]: 55%; percent C2 cleavage (Western blot densitometry), plasma of animal 4, 30 minutes after 3 mg/kg CB252 IV [3]: 45%; percent C2 cleavage (Western blot densitometry), plasma of animal 4, 60 minutes after 3 mg/kg CB252 IV [3]: 37%; percent C2 cleavage (Western blot densitometry), plasma of animal 5, 5 minutes after 3 mg/kg CB252 IV [3]: 65%; percent C2 cleavage (Western blot densitometry), plasma of animal 5, 30 minutes after 3 mg/kg CB252 IV [3]: 50%; percent C2 cleavage (Western blot densitometry), plasma of animal 5, 60 minutes after 3 mg/kg CB252 IV [3]: 38%
2 | modified MT-SP1 CB377 (Y146E/Q175D/K224N) protease domain (protein) VVGGTDADEGEWPWQVSLHALGQGHICGASLISPNWLVSAAHCYIDDRGFRYSDPTQWTAFLGLHDQSQRSAPGVQERRLKRIISHPFFNDFTFDYDIALLELEKPAEYSSMVRPICLPDASHVFPAGKAIWVTGWGHTQEGGTGALILQKGEIRVINQTTCENLLPQDITPRMMCVGFLSGGVDSCQGDSGGPLSSVEADGRIFQAGVVSWGDGCAQRNNPGVYTRLPLFRDWIKENTGV | showed no decreased hemolysis as compared to normal sera or the no protease control | showed no decreased hemolysis as compared to normal sera or the no protease control | increased cleavage of C2 in plasma from CB252 and CB377 treated monkeys after treatment with 3 mg/kg protease but not after treatment with 1 mg/kg protease | showed no decreased hemolysis as compared to normal sera or the no protease control | showed no decreased hemolysis as compared to normal sera or the no protease control | cleaved C2 in human plasma in a dose-dependent manner | C2 was almost completely degraded to yield cleavage products of about 70 kD and 23 kD corresponding to C2a and C2b, respectively | the fraction C5b-9 generated upon complement activation induced by the classical and MBL pathways was almost completely inhibited | resulted in an inhibition of hemolysis as assessed by a reduced OD415 absorbance to levels comparable to the depleted sera control | showed no decreased hemolysis as compared to normal sera or the no protease control | none of the tested proteases cleaved C3 in human plasma as compared to the no protease control even at the highest concentration of protease (2000 nM) | showed no decreased hemolysis as compared to normal sera or the no protease control | –
